The text below walks through data of US20220363758A1 (SORRENTO THERAPEUTICS, published 2022).

Sequences and labels used below:
B1: CD3-tsm#7 (WT) scFv-Fc fusion (Fc fusion)
chain: EVQLVQSGAEVKKPGASVKVSCKASGYTFISYTMHWVRQAPGQGLEWMGYINPRSGYTHYNQKLKDKATLTADKSASTAYMELSSLRSEDTAVYYCARSAYYDYDGFAYWGQGTLVTVSSGGGGSGGGGSGGGGSGGGGSDIQMTQSPSSLSASVGDRVTITCSASSSVSYMNWYQQKPGKAPKRLIYDTSKLASGVPSRFSGSGSGTDFTLTISSLQPEDFATYYCQQWSSNPPTFGGGTKVEIKGGSGGDKTHTCPPCPAPEAAGGPSVFLFPPKPKDTLMISRTPEVTCVVVDVSHEDPEVKFNWYVDGVEVHNAKTKPREEQYNSTYRVVSVLTVLHQDWLNGKEYKCKVSNKALPAPIEKTISKAKGQPREPQVYTLPPSREEMTKNQVSLSCAVKGFYPSDIAVEWESNGQPENNYKTTPPVLDSDGSFFLVSKLTVDKSRWQQGNVFSCSVMHEALHNHYTQKSLSLSPGK
notes: Wild type HuM291 VH; As for CD3-tsm#1: scFv g1 Fc fusion chain; also called wild type Hum291 scFv
B2: CD3-tsm#4 (I30V/M48I/K67R) scFv-Fc fusion (Fc fusion)
chain: B1 chain with I30V, M48I, K67R
notes: As for CD3-tsm#1: scFv g1 Fc fusion chain
B3: CD3-tsm#5 (K67R) scFv-Fc fusion (Fc fusion)
chain: B1 chain with K67R
notes: as for B2
B4: CD3-tsm#1 (M48I/K67R) scFv-Fc fusion (Fc fusion)
chain: B1 chain with M48I, K67R
notes: also called CD3 scFv-Fc fusion, VH variant M48I/K67R, tsm #1
B5: CD3-tsm#2 (I30V/K67R) scFv-Fc fusion (Fc fusion)
chain: B1 chain with I30V, K67R
notes: as for B2
B6: CD3-tsm#3 (M48I) scFv-Fc fusion (Fc fusion)
chain: B1 chain with M48I
notes: as for B2
B7: CD3-tsm#6 (I30V) scFv-Fc fusion (Fc fusion)
chain: B1 chain with I30V
notes: As for CD3-tsm#1: scFv g1 Fc fusion chain; also called CD3-tsm#6 ( (BOV))
B8: CD38 D8-3A1/CD3 (M48I/K67R) bispecific antibody (bispecific antibody, human IgG1, lambda, L234A L235A)
chain: B1 chain with M48I, K67R
heavy: QVQLVESGGGVVQPGGSLRLSCAASGFNVRTKYVHWVRQAPGKGLEWVSGIYSDPYTSYAYSDSVKGRFTISRDMSKNTVYLQMNRLRAEDTAVYYCARETNTGFSNSWYLDFWGQGTLVTVSSASTKGPSVFPLAPSSKSTSGGTAALGCLVKDYFPEPVTVSWNSGALTSGVHTFPAVLQSSGLYSLSSVVTVPSSSLGTQTYICNVNHKPSNTKVDKRVEPKSCDKTHTCPPCPAPEAAGGPSVFLFPPKPKDTLMISRTPEVTCVVVDVSHEDPEVKFNWYVDGVEVHNAKTKPREEQYNSTYRVVSVLTVLHQDWLNGKEYKCKVSNKALPAPIEKTISKAKGQPREPQVYTLPPSREEMTKNQVSLWCLVKGFYPSDIAVEWESNGQPENNYKTTPPVLDSDGSFFLYSKLTVDKSRWQQGNVFSCSVMHEALHNHYTQKSLSLSPGK
light: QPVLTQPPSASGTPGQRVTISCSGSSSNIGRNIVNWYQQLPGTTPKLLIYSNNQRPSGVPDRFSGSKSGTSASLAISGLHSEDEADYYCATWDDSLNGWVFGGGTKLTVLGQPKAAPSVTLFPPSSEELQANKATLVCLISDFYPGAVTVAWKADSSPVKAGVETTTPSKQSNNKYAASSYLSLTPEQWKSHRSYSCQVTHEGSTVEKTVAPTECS
B9: CD38A2-3H10m1/CD3tsm #1-scFvg1LALA-knob-in-hole bispecific antibody (bispecific antibody, human IgG1, lambda, L234A L235A)
chain: B1 chain with M48I, K67R
heavy: QVQLVESGGGLVKPGGSLRLSCAASGFTFSDDYMSWIRQAPGKGLEWVASVSNGRPTTYYADSVRGRFTISRDNAKNSLYLQMNSLRAEDTAVYYCAREGWSGEFTDWGQGTLVTVSSASTKGPSVFPLAPSSKSTSGGTAALGCLVKDYFPEPVTVSWNSGALTSGVHTFPAVLQSSGLYSLSSVVTVPSSSLGTQTYICNVNHKPSNTKVDKRVEPKSCDKTHTCPPCPAPEAAGGPSVFLFPPKPKDTLMISRTPEVTCVVVDVSHEDPEVKFNWYVDGVEVHNAKTKPREEQYNSTYRVVSVLTVLHQDWLNGKEYKCKVSNKALPAPIEKTISKAKGQPREPQVYTLPPSREEMTKNQVSLWCLVKGFYPSDIAVEWESNGQPENNYKTTPPVLDSDGSFFLYSKLTVDKSRWQQGNVFSCSVMHEALHNHYTQKSLSLSPGK
light: not shown
notes: Three chains: anti-CD3 scFv-Fc (hole, LALA), anti-CD38 heavy chain (knob, LALA) and anti-CD38 lambda light chain; also called CD38 A2-3H10m1 assembled with CD3-scFv tsm #1; CD38A2-3H10m1/CD3tsm #1 IgG-scFv
B10: CD38 D8/CD3 (M48I/K67R) bispecific antibody (bispecific antibody, human IgG1, lambda, L234A L235A)
chain: B1 chain with M48I, K67R
heavy: B8 heavy with N28I, R30S, K32N
light: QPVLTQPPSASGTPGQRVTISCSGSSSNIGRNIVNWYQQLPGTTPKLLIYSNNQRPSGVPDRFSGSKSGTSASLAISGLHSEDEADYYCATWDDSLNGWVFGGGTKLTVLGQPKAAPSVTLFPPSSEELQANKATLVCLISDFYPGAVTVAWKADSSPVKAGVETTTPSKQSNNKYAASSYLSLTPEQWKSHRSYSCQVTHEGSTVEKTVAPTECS
B11: CD38 D8-1B5/CD3 (M48I/K67R) bispecific antibody (bispecific antibody, human IgG1, lambda, L234A L235A)
chain: B1 chain with M48I, K67R
heavy: B8 heavy with F27L, V29A, K32N
light: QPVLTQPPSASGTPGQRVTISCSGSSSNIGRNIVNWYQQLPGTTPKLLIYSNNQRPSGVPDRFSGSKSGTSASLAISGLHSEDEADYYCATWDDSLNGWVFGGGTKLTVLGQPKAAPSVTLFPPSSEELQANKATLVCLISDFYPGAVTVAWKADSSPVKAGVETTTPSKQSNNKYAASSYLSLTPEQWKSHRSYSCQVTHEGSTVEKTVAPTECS
B12: CD38 A2/CD3 (M48I/K67R) bispecific antibody (bispecific antibody, human IgG1, lambda, L234A L235A)
chain: B1 chain with M48I, K67R
heavy: B9 heavy with G100D, S102G
light: not shown
B13: CD38 D8-3E1/CD3 (M48I/K67R) bispecific antibody (bispecific antibody, human IgG1, lambda, L234A L235A)
chain: B1 chain with M48I, K67R
heavy: B8 heavy with G26K, F27L, R30S, T31P
light: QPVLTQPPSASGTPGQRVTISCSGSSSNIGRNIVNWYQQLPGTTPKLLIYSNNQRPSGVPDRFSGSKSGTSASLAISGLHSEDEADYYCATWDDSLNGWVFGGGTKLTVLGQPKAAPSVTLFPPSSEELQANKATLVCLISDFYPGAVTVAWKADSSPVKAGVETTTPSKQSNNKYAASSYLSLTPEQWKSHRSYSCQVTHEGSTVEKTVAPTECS
notes: also called CD38 D8-3E1/CD3 (M481/K67R)
B14: CD38 D8-3A1/CD3 mAb (antibody, V domains shown)
VH: QVQLVESGGGVVQPGGSLRLSCAASGFNVRTKYVHWVRQAPGKGLEWVSGIYSDPYTSYAYSDSVKGRFTISRDMSKNTVYLQMNRLRAEDTAVYYCARETNTGFSNSWYLDFWGQGTLVTVSS
VL: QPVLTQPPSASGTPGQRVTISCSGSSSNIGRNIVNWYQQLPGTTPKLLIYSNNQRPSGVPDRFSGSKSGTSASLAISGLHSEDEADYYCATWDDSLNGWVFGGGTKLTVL
notes: stands beside the row 'CD38 D8-3A1/CD3 IgG-scFv', so it is another molecule than m27
B15: CD38 A2-3H10m1 assembled with CD3-scFv tsm #5 (bispecific antibody, human IgG1, lambda, L234A L235A)
chain: B1 chain with K67R
heavy: B9 heavy
light: not shown
B16: CD38 A2-3H10m1 assembled with CD3-scFv tsm #6 (bispecific antibody, human IgG1, lambda, L234A L235A)
chain: B1 chain with I30V
heavy: B9 heavy
light: not shown
B17: CD38 A2-3H10m1 assembled with CD3-scFv tsm #7 (bispecific antibody, human IgG1, lambda, L234A L235A)
chain: B1 chain
heavy: B9 heavy
light: not shown
notes: tsm #7 carries the wild type HuM291 VH
B18: Hu291 mAb (antibody, V domains shown)
VH: EVQLVQSGAEVKKPGASVKVSCKASGYTFISYTMHWVRQAPGQGLEWMGYINPRSGYTHYNQKLKDKATLTADKSASTAYMELSSLRSEDTAVYYCARSAYYDYDGFAYWGQGTLVTVSS
VL: DIQMTQSPSSLSASVGDRVTITCSASSSVSYMNWYQQKPGKAPKRLIYDTSKLASGVPSRFSGSGSGTDFTLTISSLQPEDFATYYCQQWSSNPPTFGGGTKVEIK
notes: also called Hum291 anti-CD3 mAb; HuM291 mAb
B19: CD38 A2-3H10m1 assembled with CD3-scFv tsm #4 (bispecific antibody, human IgG1, lambda, L234A L235A)
chain: B1 chain with I30V, M48I, K67R
heavy: B9 heavy
light: not shown
B20: CD38 A2-3H10m1 assembled with CD3-scFv tsm #2 (bispecific antibody, human IgG1, lambda, L234A L235A)
chain: B1 chain with I30V, K67R
heavy: B9 heavy
light: not shown
B21: CD38 A2-3H10m1 assembled with CD3-scFv tsm #3 (bispecific antibody, human IgG1, lambda, L234A L235A)
chain: B1 chain with M48I
heavy: B9 heavy
light: not shown

Substitutions are numbered along the chain they refer to. In names and notes the source's numbering stands.

One experiment has as its target T1, CD3 antigen expressed on cells (human CD3 epsilon) (human, UniProt P07766 23-207).
T1 construct: also called cell surface CD3 antigen; CD3 on T cells
Kind of experiment: flow cytometry on CD3-bearing cells (cell type not given). On the technique in general: In flow cytometry, cells or beads pass a laser one at a time.
With B1, the midpoint of the response, the EC50, lay at 200 ng/mL. Same read-out and setting: in the case of B2 it was 100 ng/mL; in that of B3, 100 ng/mL. On the same count and under the same terms, then B4, with 200 ng/mL.

B5 registered an EC50 of 1500 ng/mL. Still for that read-out and setting: in the case of B6 it was 200 ng/mL; in that of B7, 100 ng/mL.

In the next experiment the target is T2, Recombinant human CD38-his tag (human, UniProt P28907 43-300).
T2 construct: also called recombinant CD38 antigen; CD38 antigen; not shown: his tag
Kind of experiment: SPR (Biacore T200), antibody as captured ligand, CD38 as sample, 1:1 binding model. On the technique in general: Surface plasmon resonance follows binding to a sensor surface in real time, without labels.
Regarding B8, the Kd worked out at 4.95 nM, the off-rate (koff) amounted to 0.00393 s⁻¹ and the kon is 794000 M⁻¹ s⁻¹. The like results for B9 were, in that order, 1.51 nM, 0.00203 s⁻¹ and 1.35e+06 M⁻¹ s⁻¹. B10: the Kd turned out to be 20.3 nM, the koff turned out to be 0.011 s⁻¹ and the on-rate constant (kon) was 541000 M⁻¹ s⁻¹.

As for B11, the Kd turned out to be 4.52 nM, the off-rate (koff) turned out to be 0.00388 s⁻¹ and the kon worked out at 859000 M⁻¹ s⁻¹. Taken in the same sequence, the figures for B12 were 12.3 nM, 0.00637 s⁻¹ and 517000 M⁻¹ s⁻¹. Taken in the same sequence, the figures for B13 were 6.55 nM, 0.00565 s⁻¹ and 862000 M⁻¹ s⁻¹. The like results for B14 were, in that order, 9.14 nM, 0.00372 s⁻¹ and 406000 M⁻¹ s⁻¹.

The target in the next experiment is T1, CD3 antigen expressed on cells (human …). Kind of experiment: flow cytometry on CD38(-) primary human T cells, mouse anti-human Fc-APC detection, GeoMean RL-H of singlets.
Consider B15, for which the “EC50 (read off the curve)” value was about 0.1 ng/mL. Still for that read-out and setting: then B16, with about 0.1 ng/mL; and B17, with about 0.2 ng/mL; and B18, with about 0.008 ng/mL.

The next experiment has the same target. The experiment is described as above. This is another data set of the same source.
B9: the “EC50 (read off the curve)” value is about 0.2 ng/mL. Still for that read-out and setting: then B19, with about 0.1 ng/mL. Turning to B20, the “EC50 (read off the curve)” value was about 1 ng/mL.

In the case of B21, the “EC50 (read off the curve)” value is about 0.2 ng/mL. On the same count and under the same terms, in the case of B18 it was about 0.02 ng/mL.

As usually defined, the EC50 is the concentration giving half of the maximal effect. Read a low EC50 as greater potency. Broadly, the Kd is the equilibrium constant for the complex coming apart. The term koff denotes the rate constant with which the complex falls apart. For orientation: kon means the second-order rate constant of association. In general, EC50 (read off the curve) refers to the midpoint of the concentration-response curve. Higher therefore signals weaker potency.
